# In patent US20220047716A1 (SUTRO BIOPHARMA, published 2022):
# Substitutions are numbered along the chain they refer to.
# B1: SRP1848-A02 (antibody, V domains shown)
# VH: EVQLVESGGGLVQPGGSLRLSCAASGFNISGFRIHWVRQAPGKGLEWVAGIYPESGATYYADSVKGRFTISADTSKNTAYLQMNSLRAEDTAVYYCARHLYVWDWVLDHVLDYWGQGTLVTVSS
# VL: not shown
# B2: SRP1848-C10 (antibody, V domains shown)
# VH: EVQLVESGGGLVQPGGSLRLSCAASGFNIRTYYIHWVRQAPGKGLEWVGGISPIDGYTDYADSVKGRFTISADTSKNTAYLQMNSLRAEDTAVYYCARGSWSWPAGYGYYLDYWGQGTLVTVSS
# VL: not shown
# B3: SRP1848-F02 (antibody, V domains shown)
# VH: B2 VH with Y33S, G50S, S52F, I54N, Y57T, F68L, P104Q
# VL: not shown
# B4: SRP1848-D10 (antibody, V domains shown)
# VH: EVQLVESGGGLVQPGGSLRLSCAASGFNISRNSIHWVRQAPGKGLEWVGWISPNDGTTDYADSVKGRFTISADGSKNTAYLQMNSLRAEDTAVYYCARGAWSWRSGYGYYIDYWGQGTLVTVSS
# VL: not shown
# B5: SRP1848-F01 (antibody, V domains shown)
# VH: B2 VH with Y33S, G50S, S52F, I54N, Y57T, S102A, P104R, G108S
# VL: not shown
# B6: SRP1848-F09 (antibody, V domains shown)
# VH: B4 VH with R31N, N32H, S33Y, W50G, N54L, T57Y, G74T
# VL: not shown
# B7: SRP1848-E01 (antibody, V domains shown)
# VH: B2 VH with R30T, T31N, Y32K, S52T, I54F, Y57F, L111Q
# VL: not shown
# B8: SRP1848-E05 (antibody, V domains shown)
# VH: B2 VH with L20V, R30G, T31V, S52T, I54N, S100F, S102A, P104R, A105S
# VL: not shown
# B9: SRP1848-H01 (antibody, V domains shown)
# VH: B2 VH with Y32Q, Y33S, V48I, G50D, S52F, Y57I, A105S, Y107M, G108D
# VL: not shown
# B10: SRP1848-F05 (antibody, V domains shown)
# VH: EVQLVESGGGLVQPGGSLRLSCAASGFNISKSSIHWVRQAPGKGLEWVGEIYPNDGSTDYADSVKGRFTISADTSKNTAYLQMNSLRAEDTAVYYCARGSWAWRSGYSYFLDYWGQGTLVTVSS
# VL: not shown
# B11: SRP1848-F06 (antibody, V domains shown)
# VH: B2 VH with R30S, T31L, Y32S, Y57N, S100F, S102A, P104R, A105S
# VL: not shown
# B12: SRP1848-F11 (antibody, V domains shown)
# VH: B2 VH with R30S, T31N, Y32N, S52T, Y57N, K76M, S102Y, P104R, T118A
# VL: not shown
# B13: SRP1848-G03 (antibody, V domains shown)
# VH: B2 VH with R30S, S52T, I54S, Y57F, F68S, A105S, Y107H, Y110F
# VL: not shown
# B14: SRP1848-D04 (antibody, V domains shown)
# VH: B10 VH with K31H, S32Y, N54R, S57I, R87S, S100Y, A102F, S108G, F110Y
# VL: not shown
# B15: SRP1848-E07 (antibody, V domains shown)
# VH: B10 VH with S30R, Y52F, N54Y, S63N, S100A, A102S, S108G, F110Y, L111I
# VL: not shown
# B16: SRP1848-D07 (antibody, V domains shown)
# VH: B2 VH with R30S, T31K, I54N, T69A, S100F, S102A, P104R, A105S
# VL: not shown
# B17: SRP1848-E02 (antibody, V domains shown)
# VH: B10 VH with S30G, S32Y, S57N, A102S, S108G, F110Y
# VL: not shown
# B18: SRP1848-G01 (antibody, V domains shown)
# VH: B10 VH with K31R, S32H, E50W, Y52A
# VL: not shown
# B19: SRP1848-F10 (antibody, V domains shown)
# VH: B10 VH with K31N, S32N, E50S, Y52F, S57Y, A102F, S108G, F110Y
# VL: not shown
# B20: SRP1848-D05 (antibody, V domains shown)
# VH: B2 VH with R30S, T31I, Y32S, P104R
# VL: not shown
# B21: SRP1848-F08 (antibody, V domains shown)
# VH: B10 VH with S25G, K31N, S32H, L45V, N54V, S57I, Q82R, A102Y, R104Q, F110Y
# VL: not shown
# B22: SRP1848-D02 (antibody, V domains shown)
# VH: B2 VH with R30S, T31H, Y32N, S52T, I54Q, S85R, S100A, P104R
# VL: not shown
# B23: SRP1848-F07 (antibody, V domains shown)
# VH: B10 VH with K31N, S32H, S57I, R87S, A102D, F110Y
# VL: not shown
# B24: SRP1848-D09 (antibody, V domains shown)
# VH: B2 VH with R30S, T31N, I54N, P104R, A105H
# VL: not shown
# Target: human folate receptor alpha (hFOLR1) (human, UniProt P15328 25-234)
# Sequence (P15328 25-234 limits assumed): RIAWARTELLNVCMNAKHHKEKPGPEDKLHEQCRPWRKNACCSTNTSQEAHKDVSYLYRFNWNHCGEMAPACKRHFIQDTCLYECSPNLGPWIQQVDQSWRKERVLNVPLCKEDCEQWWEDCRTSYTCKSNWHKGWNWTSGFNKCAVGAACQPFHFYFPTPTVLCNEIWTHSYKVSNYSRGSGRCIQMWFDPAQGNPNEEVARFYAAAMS
# Experiment: cell-based or functional assay
Binder,Igrov 2° antibody cell killing EC50,Igrov 2° antibody cell killing Span,KB 2° antibody cell killing EC50,KB 2° antibody cell killing Span
B1,0.039 nM,71%,0.028 nM,94%
B2,0.036 nM,75%,0.057 nM,96%
B3,0.009 nM,54%,0.054 nM,92%
B4,0.012 nM,54%,0.016 nM,90%
B5,0.018 nM,69%,0.047 nM,91%
B6,0.05 nM,79%,0.056 nM,93%
B7,0.029 nM,72%,0.088 nM,92%
B8,0.027 nM,78%,0.071 nM,95%
B9,0.016 nM,67%,0.049 nM,96%
B10,0.015 nM,74%,0.061 nM,94%
B11,0.032 nM,77%,0.066 nM,94%
B12,0.017 nM,70%,0.054 nM,91%
B13,0.021 nM,76%,0.064 nM,91%
B14,0.068 nM,77%,0.38 nM,97%
B15,0.013 nM,73%,0.059 nM,94%
B16,0.032 nM,71%,0.075 nM,94%
B17,0.025 nM,71%,0.046 nM,93%
B18,0.022 nM,66%,0.07 nM,91%
B19,0.009 nM,68%,0.038 nM,94%
B20,–,73%,0.055 nM,92%
B21,0.024 nM,77%,0.061 nM,94%
B22,0.027 nM,71%,0.034 nM,93%
B23,0.018 nM,71%,0.057 nM,92%
B24,0.023 nM,70%,0.042 nM,91%
